Source: patent publication US20220042033A1, “COMPOSITION AND METHOD FOR CONFERRING AND/OR ENHANCING TOLERANCE AGAINST HERBICIDES BY USING VARIANTS OF PPO” (FarmHannong Co., Ltd., priority 2017, published 2022)
Residue numbers refer to the chain shown, from its start. Numbers in names are those of the source.

B1: A215L: ApPPO1 (SEQ ID NO: 1) variant (protein)
chain: MPFTHLKPLNRLLGSPRARHPHVAPQAVSVTNTSTTRPGGRSSAPGIPGDAEYDVVIVGAGISGLTTAQALAKQYSDAVPRLLVTEARDCVGGNIITRRDGGYQWEEGPNSFQPSDAVLRAAVDAGVADRLVLGDPKAPRYVYWGGRLRATPSGPDVLTFDLLSLWGKLRAGLGAAGFKAPLPEREESVKEFVTRNLGEEVFQRLIEPFCSGVYLGDPAKLSMKAAFGKVYDLEKGGGSIVGGVLALMKARKQKPPEPRPADLPPKPKGQTVGSFDKGLVTLPSAIAEELGDRVVTGWKLESIDRSGDRFQLTYDTPQGRKKVSARSVALTVPAYTAASLLESRFPKLGKALSSIYYPPVASVALSYPETAILPERLGSDGHLAGFGQLHPRTQGVTTLGTIYASSLFPGRVPEGKVLLLSYFGGATNTRVATMPHGEIVSQVDKDLRKMLIRSDAESPHTVNVTVWPRAIPQFNVGHTDLIQEAKDDLASQGWQGLHLGGNYVAGVALGKCMEAGYKQAAELASHVKSLAT
modifications: Synthetic (Protoporphyrinogen IX oxidase (ApPPO1) of Auxenochlorella protothecoides)
B2: V213C + Y422M: ApPPO1 (SEQ ID NO: 1) variant (protein)
chain: B1 chain with V213C, L215A, Y422M
modifications: Synthetic (Protoporphyrinogen IX oxidase (ApPPO1) of Auxenochlorella protothecoides)
B3: R140A + Y422M: ApPPO1 (SEQ ID NO: 1) variant (protein)
chain: B1 chain with R140A, L215A, Y422M
modifications: Synthetic (Protoporphyrinogen IX oxidase (ApPPO1) of Auxenochlorella protothecoides)
B4: A215C + Y422M: ApPPO1 (SEQ ID NO: 1) variant (protein)
chain: B1 chain with L215C, Y422M
modifications: Synthetic (Protoporphyrinogen IX oxidase (ApPPO1) of Auxenochlorella protothecoides)
B5: A215L + Y422M: ApPPO1 (SEQ ID NO: 1) variant (protein)
chain: B1 chain with Y422M
modifications: Synthetic (Protoporphyrinogen IX oxidase (ApPPO1) of Auxenochlorella protothecoides)

Experiments:
ApPPO1 [1] = assay: Herbicide tolerance test of ApPPO1 wild type and variants in PPO-deficient E. coli BT3(ΔPPO), growth on herbicide-containing LB agar; format: cell-based, Auxenochlorella protothecoides; conditions: relative to ApPPO1 WT; for Herbicide tolerance, tiafenacil: up to 200 μM (FIGS. 7-12)
Procedure: Then, the extent of tolerance was evaluated.

ApPPO1 [2] = assay: PPO enzyme activity of purified MBP-fused ApPPO1 wild type and variants; format: biochemical, Auxenochlorella protothecoides; conditions: PPO enzyme activity relative to ApPPO1 wild type; MBP-fused protein
Procedure: Thus, PPO proteins of wild type and variants were expressed as fused to MBP and were used for experiments.
The following process for purification of PPO protein was performed in a 4° C. cold room. […] The column was washed with 3 column volumes of buffer and the presence of protein in the washing solution was examined. When the protein was no longer detected, the washing procedure was terminated. Then, the MBP-PPO protein was eluted with approximately 2 column volumes of buffer containing 20 mM maltose. The protein concentration of each eluent was determined and the elution was stopped when the protein was no longer detected. Ten microliter of each fraction was investigated for protein quantification and SDS-PAGE analysis. The highly pure fractions of PPO protein variants were used for the enzyme assay.
Since protoporphyrinogen IX, a substrate of PPO protein, was not commercially available, it was chemically synthesized in the laboratory. Overall process was performed in dark under nitrogen stream. […] of protoporphyrin IX was dissolved in 20 ml of 20% (v/v) EtOH, and stirred under dark condition for 30 minutes. The obtained protoporphyrin IX solution was put into a 15 ml screw tube in an amount of 800 μl, and flushed with nitrogen gas for 5 minutes. To this, 1.5 g of sodium amalgam was added and vigorously shaken for 2 minutes. The lid was opened to exhaust hydrogen gas in the tube. Thereafter, the lid was closed and incubated for 3 minutes. The protoporphyrinogen IX solution was filtered using syringe and cellulose membrane filter. To 600 μl of the obtained protoporphyrinogen IX solution, approximately 300 μl of 2M MOPS [3-(N-morpholino) propanesulfonic acid] was added to adjust pH to 8.0. To determine the enzyme activity of PPO protein, a reaction mixture was prepared with the following composition (based on 10 ml): 50 mM Tris-Cl (pH 8.0); 50 mM NaCl; 0.04% (v/v) Tween 20; 40 mM glucose (0.072 g); 5 units glucose oxidase (16.6 mg); and 10 units catalase (1 μl).
Hundred and eighty microliters of a reaction mixture […] were placed in 96 well plates and 20 μl of purified PPO proteins were added. After 50 μl of the mineral oil was layered, the reaction was initiated by adding the substrate, protoporphyrinogen IX solution, to a final concentration of 50 μM. The reaction proceeded at room temperature for 30 min and the fluorescence of protoporphyrin IX was measured using Microplate reader (Sense, Hidex) (excitation: 405 nm; emission: 633 nm). To calculate the PPO enzyme activity, the protoporphyrinogen IX solution was kept open in the air overnight to oxidize the solution. To this, 2.7 N HCl was added, and the absorbance at 408 nm was measured. A standard curve was generated using standard protoporphyrin IX, and PPO activity was measured by calibration of protoporphyrin IX using the standard curve of protoporphyrin IX.
Activities of variants were presented relatively compared to that of wild type.

[3] = dark, up to 100 μM (FIGS. 7-12)
[4] = dark, up to 400 μM (FIGS. 7-12)

| Molecule | Herbicide tolerance, pentoxazone (ApPPO1 [1]; light, up to 10 μM (FIG. 5)) | Herbicide tolerance, pyraflufenethyl (ApPPO1 [1]; light, up to 10 μM (FIG. 6)) | Herbicide tolerance, sulfentrazone (ApPPO1 [1]; light, up to 25 μM (FIG. 3)) | Herbicide tolerance, Fomesafen (ApPPO1 [1]; light, up to 25 μM (FIG. 4)) | Herbicide tolerance, acifluorfen (ApPPO1 [1]; light, up to 25 μM (FIG. 4)) | Herbicide tolerance, saflufenacil (ApPPO1 [1]; light, up to 100 μM (FIG. 2)) | Herbicide tolerance, flumioxazin (ApPPO1 [1]; light, up to 200 μM (FIG. 3)) | Activity (%) (ApPPO1 [2]) | Herbicide tolerance, flumioxazin (ApPPO1 [1]; [3]) | Herbicide tolerance, tiafenacil (ApPPO1 [1]; dark) | Herbicide tolerance, sulfentrazone (ApPPO1 [1]; [4]) |
| --- | --- | --- | --- | --- | --- | --- | --- | --- | --- | --- | --- |
| B1 | ++ (10-99 fold higher tolerance) | +++ (100-999 fold higher tolerance) | +++ (100-999 fold higher tolerance) | +++ (100-999 fold higher tolerance) | +++ (100-999 fold higher tolerance) | ++++ (1,000-9,999 fold higher tolerance) | ++++ (1,000-9,999 fold higher tolerance) | 76% |  |  |  |
| B2 |  |  |  |  |  |  |  | 29% | +++ (100-999 fold higher tolerance) | +++++ (more than 10,000 fold higher tolerance) | ++ (10-99 fold higher tolerance) |
| B3 |  |  |  |  |  |  |  | 29% | ++++ (1,000-9,999 fold higher tolerance) | ++++ (1,000-9,999 fold higher tolerance) | ++++ (1,000-9,999 fold higher tolerance) |
| B4 |  |  |  |  |  |  |  | 58% | +++++ (more than 10,000 fold higher tolerance) | +++++ (more than 10,000 fold higher tolerance) | ++++ (1,000-9,999 fold higher tolerance) |
| B5 |  |  |  |  |  |  |  | 34% | +++++ (more than 10,000 fold higher tolerance) | +++++ (more than 10,000 fold higher tolerance) | ++++ (1,000-9,999 fold higher tolerance) |
